This is an account of results in patent US20240270821A1, “GIP/GLP1/GCG TRI-RECEPTOR AGONISTS AND USES THEREOF” (priority 2023, published 2024).

Residue numbers refer to the chain shown, from its start.

First the molecules themselves.
T1: human GIP receptor (human) (UniProt P48546)
T1 sequence (looked up): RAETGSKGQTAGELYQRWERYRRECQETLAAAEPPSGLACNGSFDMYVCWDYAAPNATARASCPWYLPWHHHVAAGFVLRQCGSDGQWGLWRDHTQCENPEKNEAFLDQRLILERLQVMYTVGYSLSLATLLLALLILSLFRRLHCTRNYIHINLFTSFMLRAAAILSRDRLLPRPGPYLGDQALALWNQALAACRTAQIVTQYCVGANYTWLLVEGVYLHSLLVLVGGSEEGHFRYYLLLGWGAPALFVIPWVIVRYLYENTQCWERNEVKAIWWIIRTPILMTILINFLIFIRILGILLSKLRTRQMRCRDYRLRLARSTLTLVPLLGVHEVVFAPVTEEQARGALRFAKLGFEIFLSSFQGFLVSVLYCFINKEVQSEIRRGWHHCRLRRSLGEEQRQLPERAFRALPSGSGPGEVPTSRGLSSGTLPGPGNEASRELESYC

B1: Example 702 (peptide)
chain: YXQGTXTSDXXIXLDXKAAXEFIEXLIEGGPSSGAPPPSGSE
modifications: synthetic construct; SITE 2: note = 2-Aminoisobutyric Acid; SITE 6: note = alpha-methyl-2-fluoro-L-phenylalanine; SITE 10: note = 3-(4-Pyridyl)-L-alanine; SITE 11: note = alpha-methyl-L-serine; SITE 13: note = alpha-methyl-leucine; SITE 16: note = L-ornithine; SITE 17: note = Lysine is chemically mo
B2: Example 719 (peptide)
chain: B1 chain with A35E, S41T
modifications: synthetic construct; SITE 2: note = 2-Aminoisobutyric Acid; SITE 6: note = alpha-methyl-2-fluoro-L-phenylalanine; SITE 10: note = 3-(4-Pyridyl)-L-alanine; SITE 11: note = alpha-methyl-L-serine; SITE 13: note = alpha-methyl-leucine; SITE 16: note = L-ornithine; SITE 17: note = Lysine is chemically mo
B3: Example 703 (peptide)
chain: B1 chain with S41E
modifications: synthetic construct; SITE 2: note = 2-Aminoisobutyric Acid; SITE 6: note = alpha-methyl-2-fluoro-L-phenylalanine; SITE 10: note = 3-(4-Pyridyl)-L-alanine; SITE 11: note = alpha-methyl-L-serine; SITE 13: note = alpha-methyl-leucine; SITE 16: note = L-ornithine; SITE 17: note = Lysine is chemically mo
B4: Example 720 (peptide)
chain: B1 chain with A35E
modifications: synthetic construct; SITE 2: note = 2-Aminoisobutyric Acid; SITE 6: note = alpha-methyl-2-fluoro-L-phenylalanine; SITE 10: note = 3-(4-Pyridyl)-L-alanine; SITE 11: note = alpha-methyl-L-serine; SITE 13: note = alpha-methyl-leucine; SITE 16: note = L-ornithine; SITE 17: note = Lysine is chemically mo
B5: Example 698 (peptide)
chain: YXQGTXTSDXXIXLDXKAQXXFIEXLIEGGPSSGEPPPEGE
modifications: synthetic construct; SITE 2: note = 2-Aminoisobutyric Acid; SITE 6: note = alpha-methyl-2-fluoro-L-phenylalanine; SITE 10: note = 3-(4-Pyridyl)-L-alanine; SITE 11: note = alpha-methyl-L-serine; SITE 13: note = alpha-methyl-leucine; SITE 16: note = L-ornithine; SITE 17: note = Lysine is chemically mo
B6: Example 722 (peptide)
chain: B5 chain with Q19A, X21E, E35A, E39S, E41X
modifications: C-terminal γGlu; C-terminal amide; synthetic construct; SITE 2: note = 2-Aminoisobutyric Acid; SITE 6: note = alpha-methyl-2-fluoro-L-phenylalanine; SITE 10: note = 3-(4-Pyridyl)-L-alanine; SITE 11: note = alpha-methyl-L-serine; SITE 13: note = alpha-methyl-leucine; SITE 16: note = L-ornithine; SITE 17: note = Lysine is chemically mo
B7: Example 707 (peptide)
chain: B5 chain with Q19A, X21E, E39S, E41S
modifications: synthetic construct; SITE 2: note = 2-Aminoisobutyric Acid; SITE 6: note = alpha-methyl-2-fluoro-L-phenylalanine; SITE 10: note = 3-(4-Pyridyl)-L-alanine; SITE 11: note = alpha-methyl-L-serine; SITE 13: note = alpha-methyl-leucine; SITE 16: note = L-ornithine; SITE 17: note = Lysine is chemically mo
B8: Example 704 (peptide)
chain: YXQGTXTSDXXIXLDXKAAXEFIEXLIEGGPSSGAPPPSGSEE
modifications: synthetic construct; SITE 2: note = 2-Aminoisobutyric Acid; SITE 6: note = alpha-methyl-2-fluoro-L-phenylalanine; SITE 10: note = 3-(4-Pyridyl)-L-alanine; SITE 11: note = alpha-methyl-L-serine; SITE 13: note = alpha-methyl-leucine; SITE 16: note = L-ornithine; SITE 17: note = Lysine is chemically mo
B9: Example 705 (peptide)
chain: B8 chain with S41E
modifications: synthetic construct; SITE 2: note = 2-Aminoisobutyric Acid; SITE 6: note = alpha-methyl-2-fluoro-L-phenylalanine; SITE 10: note = 3-(4-Pyridyl)-L-alanine; SITE 11: note = alpha-methyl-L-serine; SITE 13: note = alpha-methyl-leucine; SITE 16: note = L-ornithine; SITE 17: note = Lysine is chemically mo

The target of the first test is T1, human GIP receptor (human). The experiment in a line: cell-based or functional assay.
For B1, the Relative cAMP EC50 stood at 0.0116 nM and the cAMP Rel EC50 (1% HSA) is 1.25 nM.

B2: the Relative cAMP EC50 was 0.00998 nM and the cAMP Rel EC50 (1% HSA) came to 0.882 nM.

Turning to B3, the Relative cAMP EC50 was found to be 0.0101 nM and the cAMP Rel EC50 (1% HSA) stood at 0.961 nM.

B4 yielded a Relative cAMP EC50 of 0.0103 nM and a cAMP Rel EC50 (1% HSA) of 1.02 nM.

Molecule B5 had a Relative cAMP EC50 of 0.0112 nM and a cAMP Rel EC50 (1% HSA) of 0.824 nM.

As for B6, the Relative cAMP EC50 came to 0.01 nM and the cAMP Rel EC50 (1% HSA) was 0.953 nM.

On to B7, for which the Relative cAMP EC50 turned out to be 0.0107 nM and the cAMP Rel EC50 (1% HSA) came to 1.05 nM.

Molecule B8 yielded a Relative cAMP EC50 of 0.013 nM and a cAMP Rel EC50 (1% HSA) of 1.2 nM.

Take B9: the Relative cAMP EC50 was 0.0128 nM and the cAMP Rel EC50 (1% HSA) stood at 1.15 nM.

For another test, the target named is hGLP-1R (Homo sapiens, UniProt P43220). The experiment in a line: cell-based or functional assay.
Sequence of hGLP-1R (P43220 24-463): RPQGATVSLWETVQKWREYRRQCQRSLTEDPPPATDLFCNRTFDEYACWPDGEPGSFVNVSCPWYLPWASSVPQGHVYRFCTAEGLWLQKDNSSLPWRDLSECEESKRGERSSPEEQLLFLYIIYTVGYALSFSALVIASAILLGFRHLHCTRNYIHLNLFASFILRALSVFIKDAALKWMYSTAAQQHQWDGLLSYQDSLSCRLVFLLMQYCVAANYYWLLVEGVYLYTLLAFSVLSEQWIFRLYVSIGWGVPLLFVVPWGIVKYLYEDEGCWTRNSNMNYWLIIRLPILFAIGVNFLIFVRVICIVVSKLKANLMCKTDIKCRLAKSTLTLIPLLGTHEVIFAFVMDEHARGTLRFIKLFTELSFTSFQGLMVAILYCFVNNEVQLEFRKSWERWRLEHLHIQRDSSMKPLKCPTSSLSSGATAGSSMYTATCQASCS
For B1, the Relative cAMP EC50 amounted to 0.243 nM and the cAMP Rel EC50 (1% HSA) came to 28.4 nM.

Molecule B2 registered a Relative cAMP EC50 of 0.22 nM and a cAMP Rel EC50 (1% HSA) of 23.2 nM.

The molecule B3 yielded a Relative cAMP EC50 of 0.233 nM and a cAMP Rel EC50 (1% HSA) of 27.1 nM.

The molecule B4 returned a Relative cAMP EC50 of 0.245 nM and a cAMP Rel EC50 (1% HSA) of 28.3 nM.

B5 came in with a Relative cAMP EC50 of 0.252 nM and a cAMP Rel EC50 (1% HSA) of 20.6 nM.

For B6, the Relative cAMP EC50 turned out to be 0.252 nM and the cAMP Rel EC50 (1% HSA) turned out to be 27.2 nM.

B7: the Relative cAMP EC50 came out at 0.248 nM and the cAMP Rel EC50 (1% HSA) was 30.6 nM.

B8 had a Relative cAMP EC50 of 0.287 nM and a cAMP Rel EC50 (1% HSA) of 33.9 nM.

As for B9, the Relative cAMP EC50 turned out to be 0.305 nM and the cAMP Rel EC50 (1% HSA) worked out at 33.7 nM.

In another test the target is human glucagon receptor (human) (UniProt P47871). The experiment in a line: cell-based or functional assay.
Sequence of human glucagon receptor (human) (P47871 26-477): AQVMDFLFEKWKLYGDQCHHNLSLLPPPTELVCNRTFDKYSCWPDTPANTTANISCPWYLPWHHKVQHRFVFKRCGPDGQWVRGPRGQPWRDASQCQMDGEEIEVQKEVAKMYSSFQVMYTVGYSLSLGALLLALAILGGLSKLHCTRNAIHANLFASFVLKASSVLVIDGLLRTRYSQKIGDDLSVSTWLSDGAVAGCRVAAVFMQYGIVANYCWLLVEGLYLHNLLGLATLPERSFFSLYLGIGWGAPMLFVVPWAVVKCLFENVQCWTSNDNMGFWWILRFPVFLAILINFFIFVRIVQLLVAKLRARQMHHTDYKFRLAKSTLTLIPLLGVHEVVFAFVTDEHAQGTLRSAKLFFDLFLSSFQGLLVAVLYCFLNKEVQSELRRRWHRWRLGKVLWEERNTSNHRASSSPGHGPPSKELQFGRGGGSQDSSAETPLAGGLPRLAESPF
Turning to B1, the Relative cAMP EC50 is 1.5 nM and the cAMP Rel EC50 (1% HSA) was 196 nM.

The molecule B2 gave a Relative cAMP EC50 of 1.44 nM and a cAMP Rel EC50 (1% HSA) of 181 nM.

As for B3, the Relative cAMP EC50 was 1.56 nM and the cAMP Rel EC50 (1% HSA) turned out to be 201 nM.

In turn, B4 returned a Relative cAMP EC50 of 1.78 nM and a cAMP Rel EC50 (1% HSA) of 239 nM.

B5 displayed a Relative cAMP EC50 of 1.53 nM and a cAMP Rel EC50 (1% HSA) of 124 nM.

The molecule B6 displayed a Relative cAMP EC50 of 1.71 nM and a cAMP Rel EC50 (1% HSA) of 170 nM.

Turning to B7, the Relative cAMP EC50 was 1.06 nM and the cAMP Rel EC50 (1% HSA) is 199 nM.

Take B8: the Relative cAMP EC50 was 1.85 nM and the cAMP Rel EC50 (1% HSA) came out at 239 nM.

As to B9, the Relative cAMP EC50 turned out to be 1.7 nM and the cAMP Rel EC50 (1% HSA) came to 234 nM.
